Test results as given in US8357523B2, “Beta-glucosidase variant enzymes and related polynucleotides” (Codexis, Inc., priority 2009, dated 2013).

Experiment: High throughput cellobiose assay: fold improvement in cellobiase activity of CelA variants over a control enzyme (Tables 2A-2D, 3, 5, 6, 7)
Format: biochemical
Conditions: 3.3 g/l cellobiose, 65° C. and pH 5 (incubation overnight); relative to Control #5, Variant No. 366 (SEQ ID NO: 9)

Row | Molecule | Fold Improvement over Control Variant
1 | 419 (protein, truncated; signal peptide F-10T) SARITQEGAAPAAMLHPEKWPRPATQRLIDPAVEKRVDALLKQLSVEEKVGQVIQGDIGTITPEDLRKYPLGSILAGGDSGPNGDDRAPPKEWLDLADAFYRVSLEKRDGHTPIPVLFGIDAVHGHNNIGSATIFPHNIALGMTRDTELLRRIGEVTAEEMAATGIDWTFAPALSVPRDDRWGRTYEGFSEDPEIVASYSAAIVEGFQGKYGSKDFMAPGRAVACAKHFLADGGTDQGRDQGDARISEDELIRIHNAGYPPAIDAGVLTVMASFSSWQGIKHHGHKQLLTDVLKGQMGFNGFIVGDWNAHDQVPGCTKFNCPTSLIAGLDMYMAADSWKQLYENTLAQVKDGTIPMARLDDAVRRILRVKVLAGLFEKPAPKDRPGLPGLETLGSPEHRAVGREAVRKSLVLLKNDKGTLPLSPKARVLVAGDGADNIGKQSGGWTISWQGTGNRNDEFPGATSILGGIRDAVADAGGSVEFDVAGQYKTKPDVAIVVFGEEPYAEFRGDVETLEYQPDQKQDLTLLKKLKDQGIPVVAVFLSGRPMWVNPELNASDAFVAAWLPGTEGGGVADVLFTDKAGKVQYDFAGKLSYSWPRTAAQTTVNRGDADYNPLFAYGYGLTYKDKSKVGTLPEESGVPAEARQNAGIYFRAGALRLPGRFL | ++ (++ = 1.1 to 2.0 fold improvement over control Variant No. 366)
2 | 421 (protein, truncated; signal peptide F-10T) SAAITQEGAAPAAMLHPEKWPRPATQRLIDPAVEKRVDALLKQLSVEEKVGQVIQGDIGTITPEDLRKYPLGSILAGGDSGPNGDDRAPPKEWLDLADAFYRVSLEKRDGHTPIPVLFGIDAVHGHNNIGSATIFPHNIALGMTRDPELLRRIGEVTAEEMAATGIDWTFAPALSVPRDDRWGRTYEGFSEDPEIVASYSAAIVEGFQGKYGSKDFMAPGRAVACAKHFLADGGTDQGRDQGDARISEDELIRIHNAGYPPAIDAGVLTVMASFSSWQGIKHHGHKQLLTDVLKGQMGFNGFIVGDWNAHDQVPGCTKFNCPTSLIAGLDMYMAADSWKQLYENTLAQVKDGTIPMARLDDAVRRILRVKVLAGLFEKPAPKDRPGLPGLETLGSPEHRTVGREAVRKSLVLLKNDKGTLPLSPKARVLVAGDGADNIGKQSGGWTISWQGTGNRNDEFPGATSILGGIRDAVADAGGSVEFDVAGQYKTKPDVAIVVFGENPYAEFRGDVETLEYQPDQKQDLTLLKKLKDQGIPVVAVFLSGRPMWVNPELNASDAFVAAWLPGTEGGGVADVLFTDKAGKVQYDFAGKLSYSWPRTAAQTTVNRGDADYNPLFAYGYGLTYKDKSKVGTLPEESGVPAEARQNAGIYFRAGALRLPGRFL | ++ (++ = 1.1 to 2.0 fold improvement over control Variant No. 366)
3 | 422 (protein, truncated; signal peptide F-10T) SAAITQEGAAPAPMLHPEKWPRPATQRLIDPAVEKRVDALLKQLSVEEKVGQVIQGDIGTITPEDLRKYPLGSILAGGDSGPNGDDRAPPKEWLDLADAFYRVSLEKRPGHTPIPVLFGIDAVHGHNNIGSATIFPHNIALGMTRDTELLRRIGEVTAEEMAATGIDWTFAPALSVPRDDRWGRTYEGFSEDPEIVASYSAAIVEGFQGKYGSKDFMAPGRAVACAKHFLADGGTDQGRDQGDARISEDELIRIHNAGYPPAIDAGVLTVMASFSSWQGIKHHGHKQLLTDVLKGQMGFNGFIVGDWNAHDQVPGCTKFNCPTSLIAGLDMYMAADSWKQLYENTLAQVKDGTIPMARLDDAVRRILRVKVLAGLFEKPAPKDRPGLPGLETLGSPEHRTVGREAVRKSLVLLKNDKGTLPLSPKARVLVAGDGADNIGKQSGGWTISWQGTGNRNDEFPGATSILGGIRDAVADAGGSVEFDVAGQYKTKPDVAIVVFGENPYAEFQGDVETLEYQPDQKQDLTLLKKLKDQGIPVVAVFLSGRPMWVNPELNASDAFVAAWLPGTEGGGVADVLFTDKAGKVQHDFAGKLSYSWPRTAAQTTVNRGDADYNPLFAYGYGLTYKDKSKVGTLPEESGVPAEARQNAGIYFRAGALRLPGRFL | +++ (+++ = 2.1 to 3.0 fold improvement over control Variant No. 366)
